Assay results as given in patent US12564623B2, “Methods and compositions for treating cancer” (The University of Chicago, priority 2017, dated 2026).

Assays:
[1] = system: E0771 cancer cells; assay: Abscopal effect, bilateral E0771 tumors; format: in vivo, C57BL/6 mice
Description: (FIG. 19A) E0771 cancer cells were injected into left (0.5 million cells) and right (0.4 million cells) mammary fat pad of C57BL/6 mice. Once tumors on the left side reached ˜100 mm^3, ELANE (11.6 μg) or PMSF-inactivated ELANE (PMSF-ELANE) were injected intra-tumorally into the left tumor once/day for 5 days. n=10 mice/group. No action was performed on the right side of the tumor (abscopal side). Tumor volume on both sides were measured by calipers. (FIG. 19B) To eliminate the possibility that the abscopal effect was due to spillover of ELANE from the left to the right tumor, E0771 cancer cells were injected only into the left mammary fat pad of C57BL/6 mice, and mice were treated daily with ELANE (11.6 μg) or PMSF-ELANE into the right mammary fat pad. Tumor volume was measured by calipers.

[2] = system: MDA-MB-231, A549, MEL888, M1, 4195, E0771, LLC1, B16F10 tumors; assay: Tumor growth in xenograft, PDX and syngeneic models; format: in vivo, mice; details: 11.6 μg intratumorally once/day for 5 days
Description: MDA-MB-231, A549, or MEL888 cells (xenograft model) were injected into athymic nude mice; M1 or 4195 tumors (TNBC PDX models) were propagated in SCID mice; and E0771, LLC1, or B16F10 cells (syngeneic models) were injected into C57BL/6 mice. Once tumors reached ˜100 mm^3, ELANE (11.6 μg), or PMSF-ELANE (11.6 μg) were delivered intratumorally once/day for 5 days. n=8-15 mice/group. Tumor volume was assessed by calipers. Kaplan-Meier curve was plotted and the logrank test (Mentel-Cox method) was used for mouse survival analysis. Day 0 refers to the first treatment day. End point of survival is defined as tumor volume >1000 mm^3. (FIG. 15)

[3] = system: human blood Tcells; assay: Apoptosis of human blood T cells in vitro; format: cell-based
Description: The efficiency by which these proteases cleaved CD95 was well correlated with their ability to kill cancer cells. Thus, targeting CD95 for degradation offers three important advantages over the FASL and siRNA/shRNA approaches described above. First, unlike the resistance reported with FASL, the inventors have shown that cancer cells are incapable of becoming resistant to this degradative pathway in vitro and in vivo. […] In fact, when tumor bearing mice were treated with ELANE, tumor and splenic T-cells numbers were elevated.

[4] = system: Human or murine cancer cells; assay: Cancer cell viability and apoptosis (Calcein AM, Caspase 3/7, Annexin V); format: cell-based; details: 50 nM; 24 hrs viability, 6 hrs apoptosis
Description: Human PMN'S broadly and selectively kill cancer cells. Human peripheral blood neutrophils (PMN) were isolated from healthy donors and incubated in serum-free DMEM to collect their secreted factors (PMN-media). (A-B) Human or murine cancer cells (A) or healthy cells (b) were incubated with PMN media or control serum-free DMEM (Ctrl media) for 24 hours. Cell viability was assessed by Calcein AM staining. (C) Human or murine cancer cells were treated with PMN media or Ctrl media for 6 hours. Caspase 3/7 activity was examined by a luminescence activity assay, while cell surface Annexin V staining was assessed by flow cytometry. […] (FIG. 1).
(FIG. 6A) Cancer cells or healthy cells were treated with 50 nM purified native ELANE or control DMEM media (Ctrl) media for 24 hrs, and cell viability was assessed by Calcein AM staining. (FIG. 6B) Cancer cells were treated with 50 nM ELANE or Ctrl media for 6 hrs, and apoptosis was assessed by Caspase 3/7 luminesce activity assay or cell surface Annexin V staining by flow cytometry. *, p<0.05, Student's t-test.

B1: neutrophil elastase (protein, listed as Homo sapiens)
chain: MTLGRRLACLFLACVLPALLLGGTALASEIVGGRRARPHAWPFMVSLQLRGGHFCGATLIAPNFVMSAAHCVANVNVRAVRVVLGAHNLSRREPTRQVFAVQRIFENGYDPVNLLNDIVILQLNGSATINANVQVAQLPAQGRRLGNGVQCLAMGWGLLGRNRGIASVLQELNVTVVTSLCRRSNVCTLVRGRQAGVCFGDSGSPLVCNGLIHGIASFVRGGCASGLYPDAFAPVAQFVNWIDSIIQRSEDNPCPHPRDPDPASRTH
notes: purified native ELANE
B1 was tested, and the “tumor growth after injection into contralateral non-tumor bearing mammary fat pad” value ([1]; 11.6 μg daily) was “does not lower tumor growth”, the abscopal effect ([1]; 11.6 μg into left tumor once/day for 5 days) was “induces an abscopal effect” and the tumor growth [2] was “attenuates tumor growth in many cancer models”. For the same molecule, the “apoptosis of human blood T cells” value [3] was “did not induce apoptosis in vitro” and the “cancer cell killing and apoptosis” value [4] was “selectively kill cancer cells by inducing apoptosis”.
